Measurements taken from IntAct's records for PubMed 31515488.

B1: Putative pre-mRNA-splicing factor ATP-dependent RNA helicase DHX32 (Homo sapiens), Q7L7V1 (parent)
chain: MEEEGLECPNSSSEKRYFPESLDSSDGDEEEVLACEDLELNPFDGLPYSSRYYKLLKEREDLPIWKEKYSFMENLLQNQIVIVSGDAKCGKSAQVPQWCAEYCLSIHYQHGGVICTQVHKQTVVQLALRVADEMDVNIGHEVGYVIPFENCCTNETILRYCTDDMLQREMMSNPFLGSYGVIILDDIHERSIATDVLLGLLKDVLLARPELKLIINSSPHLISKLNSYYGNVPVIEVKNKHPVEVVYLSEAQKDSFESILRLIFEIHHSGEKGDIVVFLACEQDIEKVCETVYQGSNLNPDLGELVVVPLYPKEKCSLFKPLDETEKRCQVYQRRVVLTTSSGEFLIWSNSVRFVIDVGVERRKVYNPRIRANSLVMQPISQSQAEIRKQILGSSSSGKFFCLYTEEFASKDMTPLKPAEMQEANLTSMVLFMKRIDIAGLGHCDFMNRPAPESLMQALEDLDYLAALDNDGNLSEFGIIMSEFPLDPQLSKSILASCEFDCVDEVLTIAAMVTAPNCFSHVPHGAEEAALTCWKTFLHPEGDHFTLISIYKAYQDTTLNSSSEYCVEKWCRDYFLNCSALRMADVIRAELLEIIKRIELPYAEPAFGSKENTLNIKKALLSGYFMQIARDVDGSGNYLMLTHKQVAQLHPLSGYSITKKMPEWVLFHKFSISENNYIRITSEISPELFMQLVPQYYFSNLPPSESKDILQQVVDHLSPVSTMNKEQQMCETCPETEQRCTLQ
partner: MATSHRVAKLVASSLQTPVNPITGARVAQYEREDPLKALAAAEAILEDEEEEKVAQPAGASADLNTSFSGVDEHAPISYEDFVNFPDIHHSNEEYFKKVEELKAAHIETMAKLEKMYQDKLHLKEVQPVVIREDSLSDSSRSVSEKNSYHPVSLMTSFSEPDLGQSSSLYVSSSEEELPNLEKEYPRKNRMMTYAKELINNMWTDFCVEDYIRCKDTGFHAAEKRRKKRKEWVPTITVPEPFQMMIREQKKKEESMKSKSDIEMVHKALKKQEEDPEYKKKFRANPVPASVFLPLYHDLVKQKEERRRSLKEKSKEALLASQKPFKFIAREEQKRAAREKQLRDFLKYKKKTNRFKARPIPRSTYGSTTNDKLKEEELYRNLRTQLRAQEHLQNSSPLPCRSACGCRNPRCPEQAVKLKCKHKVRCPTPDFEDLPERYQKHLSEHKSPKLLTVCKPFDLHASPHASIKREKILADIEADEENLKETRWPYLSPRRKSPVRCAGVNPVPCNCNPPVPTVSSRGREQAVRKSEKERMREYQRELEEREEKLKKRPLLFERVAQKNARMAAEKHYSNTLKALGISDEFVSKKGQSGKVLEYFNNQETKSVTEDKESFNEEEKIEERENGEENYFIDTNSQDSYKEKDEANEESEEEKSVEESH
B2: Modulator of apoptosis 1 (Homo sapiens), Q96BY2 (parent)
chain: MTLRLLEDWCRGMDMNPRKALLIAGISQSCSVAEIEEALQAGLAPLGEYRLLGRMFRRDENRKVALVGLTAETSHALVPKEIPGKGGIWRVIFKPPDPDNTFLSRLNEFLAGEGMTVGELSRALGHENGSLDPEQGMIPEMWAPMLAQALEALQPALQCLKYKKLRVFSGRESPEPGEEEFGRWMFHTTQMIKAWQVPDVEKRRRLLESLRGPALDVIRVLKINNPLITVDECLQALEEVFGVTDNPRELQVKYLTTYQKDEEKLSAYVLRLEPLLQKLVQRGAIERDAVNQARLDQVIAGAVHKTIRRELNLPEDGPAPGFLQLLVLIKDYEAAEEEEALLQAILEGNFT
partner: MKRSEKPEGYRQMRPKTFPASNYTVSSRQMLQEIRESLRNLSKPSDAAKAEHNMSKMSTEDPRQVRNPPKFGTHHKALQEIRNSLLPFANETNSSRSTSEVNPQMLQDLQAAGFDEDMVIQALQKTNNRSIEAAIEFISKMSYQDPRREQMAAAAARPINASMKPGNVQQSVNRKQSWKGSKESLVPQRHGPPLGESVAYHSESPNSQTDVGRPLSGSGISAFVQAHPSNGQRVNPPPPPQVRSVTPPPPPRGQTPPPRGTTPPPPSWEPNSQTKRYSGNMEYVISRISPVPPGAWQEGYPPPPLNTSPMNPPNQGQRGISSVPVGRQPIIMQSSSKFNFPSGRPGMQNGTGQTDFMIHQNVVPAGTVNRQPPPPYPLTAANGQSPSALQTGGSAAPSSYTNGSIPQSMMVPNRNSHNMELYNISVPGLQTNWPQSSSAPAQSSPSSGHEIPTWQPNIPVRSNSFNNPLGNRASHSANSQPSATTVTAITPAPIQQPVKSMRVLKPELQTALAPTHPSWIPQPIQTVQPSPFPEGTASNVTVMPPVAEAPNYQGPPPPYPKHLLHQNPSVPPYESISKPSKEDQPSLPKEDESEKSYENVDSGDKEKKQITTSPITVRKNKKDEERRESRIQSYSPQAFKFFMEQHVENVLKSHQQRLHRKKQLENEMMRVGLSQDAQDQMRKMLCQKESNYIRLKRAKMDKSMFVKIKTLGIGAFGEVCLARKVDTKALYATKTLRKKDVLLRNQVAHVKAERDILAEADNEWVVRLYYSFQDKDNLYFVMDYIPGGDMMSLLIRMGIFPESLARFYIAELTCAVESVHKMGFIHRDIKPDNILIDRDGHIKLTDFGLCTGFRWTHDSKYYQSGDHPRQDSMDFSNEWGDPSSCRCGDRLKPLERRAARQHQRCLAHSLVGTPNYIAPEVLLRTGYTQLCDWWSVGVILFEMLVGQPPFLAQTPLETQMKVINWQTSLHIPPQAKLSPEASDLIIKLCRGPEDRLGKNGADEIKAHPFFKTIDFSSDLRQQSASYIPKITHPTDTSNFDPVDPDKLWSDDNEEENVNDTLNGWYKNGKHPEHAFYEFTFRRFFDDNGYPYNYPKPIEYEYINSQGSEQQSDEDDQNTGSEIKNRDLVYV
B3: Dystrobrevin beta (Homo sapiens), O60941 (parent)
chain: MIEESGNKRKTMAEKRQLFIEMRAQNFDVIRLSTYRTACKLRFVQKRCNLHLVDIWNMIEAFRDNGLNTLDHTTEISVSRLETVISSIYYQLNKRLPSTHQISVEQSISLLLNFMIAAYDSEGRGKLTVFSVKAMLATMCGGKMLDKLRYVFSQMSDSNGLMIFSKFDQFLKEVLKLPTAVFEGPSFGYTEHSVRTCFPQQRKIMLNMFLDTMMADPPPQCLVWLPLMHRLAHVENVFHPVECSYCRCESMMGFRYRCQQCHNYQLCQNCFWRGHAGGPHSNQHQMKEHSSWKSPAKKLSHAISKSLGCVPTREPPHPVFPEQPEKPLDLAHIVPPRPLTNMNDTMVSHMSSGVPTPTKRLQYSQDIPSHLADEHALIASYVARLQHCARVLDSPSRLDEEHRLIARYAARLAAEAGNVTRPPTDLSFNFDANKQQRQLIAELENKNREILQEIQRLRLEHEQASQPTPEKAQQNPTLLAELRLLRQRKDELEQRMSALQESRRELMVQLEELMKLLKEEEQKQAAQATGSPHTSPTHGGGRPMPMPVRSTSAGSTPTHCPQDSLSGVGGDVQEAFAQGTRRNLRNDLLVAADSITNTMSSLVKELHSAEEGAEEEEEKMQNGKDRG
partner: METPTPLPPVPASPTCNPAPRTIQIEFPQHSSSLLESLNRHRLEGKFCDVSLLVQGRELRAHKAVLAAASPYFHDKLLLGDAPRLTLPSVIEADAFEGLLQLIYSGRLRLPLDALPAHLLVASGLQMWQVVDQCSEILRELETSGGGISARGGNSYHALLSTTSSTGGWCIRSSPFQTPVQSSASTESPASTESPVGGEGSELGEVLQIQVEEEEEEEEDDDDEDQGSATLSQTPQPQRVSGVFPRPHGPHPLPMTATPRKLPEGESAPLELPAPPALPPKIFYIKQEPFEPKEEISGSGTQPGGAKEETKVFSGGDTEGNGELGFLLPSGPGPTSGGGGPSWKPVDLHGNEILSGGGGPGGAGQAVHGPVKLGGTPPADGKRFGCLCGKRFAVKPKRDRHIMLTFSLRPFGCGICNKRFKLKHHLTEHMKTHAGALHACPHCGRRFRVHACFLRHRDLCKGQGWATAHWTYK
B4: Cytohesin-4 (Homo sapiens), Q9UIA0 (parent)
chain: MDLCHPEPAELSSGETEELQRIKWHRKQLLEDIQKLKDEIADVFAQIDCFESAEESRMAQKEKELCIGRKKFNMDPAKGIQYFIEHKLLTPDVQDIARFLYKGEGLNKTAIGTYLGERDPINLQVLQAFVDCHEFANLNLVQALRQFLWSFRLPGEAQKIDRMMEAFATRYCLCNPGVFQSTDTCYVLSFSIIMLNTSLHNPNVRDRPPFERFVSMNRGINNGSDLPEDQLRNLFDSIKSEPFSIPEDDGNDLTHTFFNPDREGWLLKLGGRVKTWKRRWFILTDNCLYYFEFTTDKEPRGIIPLENLSVQKVDDPKKPFCLELYNPSCRGQKIKACKTDGDGRVVEGKHESYRISATSAEERDQWIESIRASITRVPFYDLVSTRKKKIASKQ
partner: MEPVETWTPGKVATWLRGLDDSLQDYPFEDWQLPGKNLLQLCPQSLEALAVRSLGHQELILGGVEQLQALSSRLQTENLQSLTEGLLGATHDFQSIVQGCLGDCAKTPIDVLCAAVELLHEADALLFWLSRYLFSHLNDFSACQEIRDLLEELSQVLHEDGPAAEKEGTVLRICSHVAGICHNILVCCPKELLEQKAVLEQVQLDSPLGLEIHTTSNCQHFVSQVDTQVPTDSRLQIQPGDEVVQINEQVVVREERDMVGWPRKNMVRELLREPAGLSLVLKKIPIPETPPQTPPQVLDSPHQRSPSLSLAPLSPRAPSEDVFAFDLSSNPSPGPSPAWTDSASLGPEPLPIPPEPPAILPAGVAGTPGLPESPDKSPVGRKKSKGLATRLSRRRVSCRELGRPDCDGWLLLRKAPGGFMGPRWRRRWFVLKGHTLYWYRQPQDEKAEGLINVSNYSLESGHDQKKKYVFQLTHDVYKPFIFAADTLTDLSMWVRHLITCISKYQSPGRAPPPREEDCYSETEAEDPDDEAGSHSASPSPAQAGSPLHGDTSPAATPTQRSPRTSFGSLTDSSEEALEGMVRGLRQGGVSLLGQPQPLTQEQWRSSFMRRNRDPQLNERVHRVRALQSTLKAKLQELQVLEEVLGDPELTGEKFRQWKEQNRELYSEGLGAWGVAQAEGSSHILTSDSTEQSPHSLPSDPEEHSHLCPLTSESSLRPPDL
B5: Ceramide transfer protein (Homo sapiens), Q9Y5P4 (parent)
chain: MSDNQSWNSSGSEEDPETESGPPVERCGVLSKWTNYIHGWQDRWVVLKNNALSYYKSEDETEYGCRGSICLSKAVITPHDFDECRFDISVNDSVWYLRAQDPDHRQQWIDAIEQHKTESGYGSESSLRRHGSMVSLVSGASGYSATSTSSFKKGHSLREKLAEMETFRDILCRQVDTLQKYFDACADAVSKDELQRDKVVEDDEDDFPTTRSDGDFLHSTNGNKEKLFPHVTPKGINGIDFKGEAITFKATTAGILATLSHCIELMVKREDSWQKRLDKETEKKRRTEEAYKNAMTELKKKSHFGGPDYEEGPNSLINEEEFFDAVEAALDRQDKIEEQSQSEKVRLHWPTSLPSGDAFSSVGTHRFVQKPYSRSSSMSSIDLVSASDDVHRFSSQVEEMVQNHMTYSLQDVGGDANWQLVVEEGEMKVYRREVEENGIVLDPLKATHAVKGVTGHEVCNYFWNVDVRNDWETTIENFHVVETLADNAIIIYQTHKRVWPASQRDVLYLSVIRKIPALTENDPETWIVCNFSVDHDSAPLNNRCVRAKINVAMICQTLVSPPEGNQEISRDNILCKITYVANVNPGGWAPASVLRAVAKREYPKFLKRFTSYVQEKTAGKPILF

Variants of: B1
Conditions: with FAM161A

effect of a mutation on the interaction	Variant
with no effect	D301A

Variants of: B2
Conditions: with lats1_human LATS1, O95835

effect of a mutation on the interaction	Variant
disrupting interaction strength	MTLRLLEDWCRGMDMNPRKALLIAGISQSCSVAEIEEALQAGLAPLGEYRLLGRMFKRDENRKVALVGLTAETSHALVPKEIPGKGGIWRVIFKPPDPDNTFLSRLNEFLAGEGMTVGELSRALGHENGSLDPEQGMIPEMWAPMLAQALEALQPALQCLKYKKLRVFSGRESPEPGEEEFGRWMFHTTQMIKAWQVPDVEKRRRLLESLRGPALDVIRVLKINNPLITVDECLQALEEVFGVTDNPRELQVKYLTTYQKDEEKLSAYVLRLEPLLQKLVQRGAIERDAVNQARLDQVIAGAVHKTIRRELNLPEDGPAPGFLQLLVLIKDYEAAEEEEALLQAILEGNFT [R57K]

Variants of: B3
Conditions: with zbtb9_human ZBTB9, Q96C00

effect of a mutation on the interaction	Variant
with no effect	R80H

Variants of: B4
Conditions: with cnkr1_human CNKSR1, Q969H4

effect of a mutation on the interaction	Variant
with no effect	MDLCHPEPTELSSGETEELQRIKWHRKQLLEDIQKLKDEIADVFAQIDCFESAEESRMAQKEKELCIGRKKFNMDPAKGIQYFIEHKLLTPDVQDIARFLYKGEGLNKTAIGTYLGERDPINLQVLQAFVDCHEFANLNLVQALRQFLWSFRLPGEAQKIDRMMEAFATRYCLCNPGVFQSTDTCYVLSFSIIMLNTSLHNPNVRDRPPFERFVSMNRGINNGSDLPEDQLRNLFDSIKSEPFSIPEDDGNDLTHTFFNPDREGWLLKLGGRVKTWKRRWFILTDNCLYYFEFTTDKEPRGIIPLENLSVQKVDDPKKPFCLELYNPSCRGQKIKACKTDGDGRVVEGKHESYRISATSAEERDQWIESIRASITRVPFYDLVSTRKKKIASKQ [A9T]
with no effect	MDLCHPEPAELSSGETEELQRIKWHRKQLLEDIQKLKDEIADVFAQIDCFESAEESRMAQKEKELCIGRKKFNVDPAKGIQYFIEHKLLTPDVQDIARFLYKGEGLNKTAIGTYLGERDPINLQVLQAFVDCHEFANLNLVQALRQFLWSFRLPGEAQKIDRMMEAFATRYCLCNPGVFQSTDTCYVLSFSIIMLNTSLHNPNVRDRPPFERFVSMNRGINNGSDLPEDQLRNLFDSIKSEPFSIPEDDGNDLTHTFFNPDREGWLLKLGGRVKTWKRRWFILTDNCLYYFEFTTDKEPRGIIPLENLSVQKVDDPKKPFCLELYNPSCRGQKIKACKTDGDGRVVEGKHESYRISATSAEERDQWIESIRASITRVPFYDLVSTRKKKIASKQ [M74V]

Variants of: B5
Conditions: with rtn4_human RTN4, Q9NQC3
Chain of rtn4_human RTN4, Q9NQC3 (Q9NQC3 whole entry): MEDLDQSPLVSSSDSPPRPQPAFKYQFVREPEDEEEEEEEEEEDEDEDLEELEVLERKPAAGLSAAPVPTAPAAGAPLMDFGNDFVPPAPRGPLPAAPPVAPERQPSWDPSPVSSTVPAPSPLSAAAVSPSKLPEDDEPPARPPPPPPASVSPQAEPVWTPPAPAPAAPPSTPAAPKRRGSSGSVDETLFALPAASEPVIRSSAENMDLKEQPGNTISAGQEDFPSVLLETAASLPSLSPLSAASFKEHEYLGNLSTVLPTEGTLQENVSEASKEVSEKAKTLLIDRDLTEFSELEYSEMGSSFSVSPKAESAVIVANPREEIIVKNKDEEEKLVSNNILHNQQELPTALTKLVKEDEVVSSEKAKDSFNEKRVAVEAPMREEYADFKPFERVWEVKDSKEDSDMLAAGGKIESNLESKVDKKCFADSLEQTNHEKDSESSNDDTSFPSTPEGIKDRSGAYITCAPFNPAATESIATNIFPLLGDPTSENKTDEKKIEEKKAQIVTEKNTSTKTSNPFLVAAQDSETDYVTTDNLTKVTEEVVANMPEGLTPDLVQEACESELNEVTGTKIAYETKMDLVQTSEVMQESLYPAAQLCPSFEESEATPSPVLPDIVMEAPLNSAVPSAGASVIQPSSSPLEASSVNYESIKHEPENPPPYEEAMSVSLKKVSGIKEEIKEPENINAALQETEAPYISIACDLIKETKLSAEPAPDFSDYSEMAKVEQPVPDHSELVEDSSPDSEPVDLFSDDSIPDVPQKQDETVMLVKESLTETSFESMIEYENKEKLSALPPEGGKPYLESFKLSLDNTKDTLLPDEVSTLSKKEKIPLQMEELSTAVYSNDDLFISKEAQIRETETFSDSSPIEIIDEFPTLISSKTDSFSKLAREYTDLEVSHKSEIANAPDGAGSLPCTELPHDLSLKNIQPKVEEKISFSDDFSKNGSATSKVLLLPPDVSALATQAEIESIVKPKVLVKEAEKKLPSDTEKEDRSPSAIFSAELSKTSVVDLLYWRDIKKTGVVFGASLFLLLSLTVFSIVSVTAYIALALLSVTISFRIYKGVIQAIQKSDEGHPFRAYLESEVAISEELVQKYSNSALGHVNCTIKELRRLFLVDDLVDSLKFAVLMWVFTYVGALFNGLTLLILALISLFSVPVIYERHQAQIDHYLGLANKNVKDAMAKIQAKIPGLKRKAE

effect of a mutation on the interaction	Variant
with no effect	R128H

Variants of: B5
Conditions: with rtn3_human RTN3, O95197
Chain of rtn3_human RTN3, O95197 (O95197 whole entry): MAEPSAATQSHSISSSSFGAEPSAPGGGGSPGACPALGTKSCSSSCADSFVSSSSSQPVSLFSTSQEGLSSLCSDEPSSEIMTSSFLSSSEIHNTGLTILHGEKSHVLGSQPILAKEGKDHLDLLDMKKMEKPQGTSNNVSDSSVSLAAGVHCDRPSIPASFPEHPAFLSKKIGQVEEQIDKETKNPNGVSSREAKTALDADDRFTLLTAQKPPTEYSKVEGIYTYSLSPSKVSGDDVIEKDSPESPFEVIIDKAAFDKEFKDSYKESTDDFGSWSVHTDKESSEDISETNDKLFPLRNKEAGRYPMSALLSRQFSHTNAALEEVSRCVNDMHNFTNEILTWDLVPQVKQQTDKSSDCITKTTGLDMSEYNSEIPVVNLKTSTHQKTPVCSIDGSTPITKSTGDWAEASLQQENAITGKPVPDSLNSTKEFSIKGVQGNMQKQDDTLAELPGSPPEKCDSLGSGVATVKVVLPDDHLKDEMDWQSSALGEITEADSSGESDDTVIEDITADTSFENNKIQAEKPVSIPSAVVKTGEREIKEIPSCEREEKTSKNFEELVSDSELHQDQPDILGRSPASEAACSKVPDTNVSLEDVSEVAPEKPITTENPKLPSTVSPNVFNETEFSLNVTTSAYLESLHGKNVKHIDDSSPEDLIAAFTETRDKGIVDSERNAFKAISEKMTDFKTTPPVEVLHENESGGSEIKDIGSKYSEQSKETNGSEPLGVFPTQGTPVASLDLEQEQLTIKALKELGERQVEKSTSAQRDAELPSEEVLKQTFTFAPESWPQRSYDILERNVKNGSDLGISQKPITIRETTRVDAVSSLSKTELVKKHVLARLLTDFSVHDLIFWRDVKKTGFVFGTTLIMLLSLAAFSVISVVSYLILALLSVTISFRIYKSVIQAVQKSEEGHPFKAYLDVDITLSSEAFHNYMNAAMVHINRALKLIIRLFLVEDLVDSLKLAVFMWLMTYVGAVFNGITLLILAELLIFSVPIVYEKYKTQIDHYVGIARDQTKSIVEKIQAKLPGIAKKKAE

effect of a mutation on the interaction	Variant
with no effect	R128H

Variants of: B5
Conditions: with ar6p1_human ARL6IP1, Q15041
Chain of ar6p1_human ARL6IP1, Q15041 (Q15041 whole entry): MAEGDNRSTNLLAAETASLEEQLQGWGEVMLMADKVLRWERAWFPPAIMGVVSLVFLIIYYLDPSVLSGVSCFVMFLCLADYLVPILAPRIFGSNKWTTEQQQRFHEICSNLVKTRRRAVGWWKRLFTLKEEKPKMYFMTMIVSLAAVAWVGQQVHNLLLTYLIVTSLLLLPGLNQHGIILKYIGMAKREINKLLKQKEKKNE

effect of a mutation on the interaction	Variant
with no effect	R128H
